The results in this text go back to US11396552 (DIABETES FREE, dated 2022).

For assay [1], the target named is CD40 on peripheral blood mononuclear cells (PBMC) from healthy donors (human, UniProt P25942 21-277). In words: cell-based or functional assay.
Assay [2] has as its target T1, recombinant CD40 (human, UniProt P25942 21-193, limits assumed).
T1 construct: the ELISA method itself names no species or construct; also called antigen CD40
As to the kind of experiment: ELISA, plates coated with recombinant CD40, AP-conjugated anti-human kappa detection; effective concentration in supernatant read on a PG102 reference curve. The protocol:
Binding of the antibody variants to CD40 was measured using an ELISA based assay based on UKSL-2057. Microtiter plates were coated with recombinant CD40 before the antibody variants were added and detected using an alkaline phosphatase conjugated antihuman kappa IgG.
Samples were then prepared and analyzed The results were converted to effective concentrations in the clarified supernatant […] This assay provides an assessment of the affinity of the antibody variants for CD40.

T1 sequence (P25942 21-193 limits assumed): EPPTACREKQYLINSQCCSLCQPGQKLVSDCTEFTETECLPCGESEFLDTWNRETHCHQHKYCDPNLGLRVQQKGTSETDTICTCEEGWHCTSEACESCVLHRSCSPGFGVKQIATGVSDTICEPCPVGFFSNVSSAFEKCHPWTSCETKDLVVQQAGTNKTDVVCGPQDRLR
Chain of CD40 on peripheral blood mononuclear cells (PBMC) from healthy donors (P25942 21-277): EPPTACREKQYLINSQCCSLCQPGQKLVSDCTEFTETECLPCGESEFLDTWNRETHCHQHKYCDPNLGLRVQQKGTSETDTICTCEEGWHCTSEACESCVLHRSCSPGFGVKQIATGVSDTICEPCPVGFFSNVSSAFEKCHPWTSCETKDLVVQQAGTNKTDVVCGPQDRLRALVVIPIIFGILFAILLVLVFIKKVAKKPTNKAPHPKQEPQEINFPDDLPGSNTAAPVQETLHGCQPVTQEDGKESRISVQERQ

B1: PG102 wild-type recombinant antibody (antibody, human IgG4 S228P, kappa, V domains shown)
VH: QVKLQESGPGLVKPSETLSITCTVSGFSLSRYSVYWIRQPPGKGPEWMGMMWGGGSTDYSTSLKSRLTISKDTSKSQVSLKMNSLRTDDTAMYYCVRTDGDYWGQGTTVTVSS
VL: ELQLTQSPLSLPVTLGQPASISCRSSQSLANSNGNTYLHWYLQRPGQSPRLLIYKVSNRFSGVPDRFSGSGSGTDFTLKISRVEAEDVGVYYCSQSTHVPWTFGGGTKLEIKR
notes: Human IgG4pro(deltaK) heavy, kappa light; also called PG102_Wt; PG102 wt
For the molecule B1, in assay [1], the “Percentage inhibition of TNF secretion at 1 ng/ml” value (“Percentage inhibition … at 1 ng/ml” for short) was -5.2% and the “Percentage inhibition of TNF secretion at 10 ng/ml” value (“Percentage inhibition … at 10 ng/ml” for short) amounted to 81.2%. Also, the CD40 binding in assay [2] came to 14.6 mg/L.

B2: PG102_Var5 (antibody, human IgG4 S228P, kappa, V domains shown)
VH: QVQLQESGPGLVKPSETLSITCTVSGFSLSRYSVYWIRQPPGKGPEWMGMMWGGGSTDYSTSLKSRLTISKDTSKSQVSLKMSSLTAADTAVYYCVRTDGDYWGQGTLVTVSS
VL: ELQLTQSPLSLPVTLGQPASISCRSSQSLASSQGNTYLHWYLQRPGQSPRLLIYKVSNRFSGVPDRFSGSGSGTDFTLKISRVEAEDVGVYYCSQSTHVPWTFGGGTKLEIKR
notes: IgG4pro(deltaK)/kappa; also called FFP104_Var5
B2: in assay [1], the “Percentage inhibition … at 1 ng/ml” value turned out to be 22.5% and the “Percentage inhibition … at 10 ng/ml” value worked out at 87.4%. Further, the CD40 binding in assay [2] stood at 34.9 mg/L.

B3: PG102_Var8 (antibody, human IgG4 S228P, kappa, V domains shown)
VH: QVQLVESGGGLVKPGGSLRLSCAVSGFSLSRYSVYWIRQAPGKGLEWMGMMWGGGSTDYSTSVKGRFTISKDNAKTSVYLQMSSLRAEDTAVYYCVRTDGDYWGQGTLVTVSS
VL: ELQLTQSPLSLPVTLGQPASISCRSSQSLASSQGNTYLHWYLQRPGQSPRLLIYKVSNRFSGVPDRFSGSGSGTDFTLKISRVEAEDVGVYYCSQSTHVPWTFGGGTKLEIKR
notes: IgG4pro(deltaK)/kappa; also called FFP104_Var8
In the case of B3, the CD40 binding in assay [2] is 23.5 mg/L.

B4: PG102_Var7 (antibody, human IgG4 S228P, kappa, V domains shown)
VH: QVQLQESGPGLVKPSQTLSLTCTVSGFSLSRYSVYWVRQPPGKGLEWIGMMWGGGSTDYNPSLKSRLTISKDTSKSQVSLKLSSLTAADTAVYYCVRTDGDYWGQGTLVTVSS
VL: ELQLTQSPLSLPVTLGQPASISCRSSQSLASSQGNTYLHWYLQRPGQSPRLLIYKVSNRFSGVPDRFSGSGSGTDFTLKISRVEAEDVGVYYCSQSTHVPWTFGGGTKLEIKR
notes: IgG4pro(deltaK)/kappa; also called FFP104_Var7
As to B4, the CD40 binding in assay [2] came to 33.6 mg/L.

B5: PG102_Var10 (antibody, human IgG4 S228P, kappa, V domains shown)
VH: QVQLQESGPGLVKPSETLSITCTVSGFSLSRYSVYWVRQPPGKGLEWMGMMWGGGSTDYSTSLKSRLTISKDTSKSQVSLKMSSLTAADTAVYYCVRTDGDYWGQGTLVTVSS
VL: ELQLTQSPLSLPVTLGQPASISCRSSQSLADSQGNTYLHWYLQRPGQSPRLLIYKVSNRFSGVPDRFSGSGSGTDFTLKISRVEAEDVGVYYCSQSTHVPWTFGGGTKLEIKR
notes: IgG4pro(deltaK)/kappa; also called FFP104_Var10
As to B5, in assay [1], the “Percentage inhibition … at 1 ng/ml” value worked out at 14.4% and the “Percentage inhibition … at 10 ng/ml” value turned out to be 75.8%. Moreover, the CD40 binding in assay [2] is 4.35 mg/L.

B6: PG102_Var13 (antibody, human IgG4 S228P, kappa, V domains shown)
VH: QVQLQESGPGLVKPSETLSITCTVSGFSLSRYSVYWIRQPPGKGPEWMGMMWGGGSTDYSTSLKSRLTISKDTSKSQVSLKMSSLTAADTAVYYCVRTDGDYWGQGTLVTVSS
VL: DIVMTQSPLSLPVTPGQPASISCRSSQSLASSQGNTYLHWYLQKPGQSPRLLIYKVSNRFSGVPDRFSGSGSGTDFTLKISRVEAEDVGVYYCSQSTHVPWTFGGGTKLEIKR
notes: IgG4pro(deltaK)/kappa; also called FFP104_Var13
With B6, the CD40 binding in assay [2] was 22.8 mg/L.

B7: PG102_Var9 (antibody, human IgG4 S228P, kappa, V domains shown)
VH: QVQLQESGPGLVKPSETLSITCTVSGFSLSRYSVYWIRQPPGKGPEWMGMMWGGGSTDYSTSLKSRLTISKDTSKSQVSLKMSSLTAADTAVYYCVRTDGDYWGQGTLVTVSS
VL: ELQLTQSPLSLPVTLGQPASISCRSSQSLADSQGNTYLHWYLQRPGQSPRLLIYKVSNRFSGVPDRFSGSGSGTDFTLKISRVEAEDVGVYYCSQSTHVPWTFGGGTKLEIKR
notes: IgG4pro(deltaK)/kappa; also called FFP104_Var9
For B7, the CD40 binding in assay [2] amounted to 17 mg/L.

B8: PG102_Var4 (antibody, human IgG4 S228P, kappa, V domains shown)
VH: QVQLVESGGGLVKPGGSLRLSCAVSGFSLSRYSVYWIRQAPGKGLEWMGMMWGGGSTDYSTSVKGRFTISKDNAKTSVYLQMSSLRAEDTAVYYCVRTDGDYWGQGTLVTVSS
VL: ELQLTQSPLSLPVTLGQPASISCRSSQSLASSSGNTYLHWYLQRPGQSPRLLIYKVSNRFSGVPDRFSGSGSGTDFTLKISRVEAEDVGVYYCSQSTHVPWTFGGGTKLEIKR
notes: IgG4pro(deltaK)/kappa; also called FFP104_Var4
On to B8, for which the CD40 binding in assay [2] turned out to be 29.5 mg/L.

B9: PG102_Var1 (antibody, human IgG4 S228P, kappa, V domains shown)
VH: QVQLQESGPGLVKPSETLSITCTVSGFSLSRYSVYWIRQPPGKGPEWMGMMWGGGSTDYSTSLKSRLTISKDTSKSQVSLKMSSLTAADTAVYYCVRTDGDYWGQGTLVTVSS
VL: ELQLTQSPLSLPVTLGQPASISCRSSQSLASSSGNTYLHWYLQRPGQSPRLLIYKVSNRFSGVPDRFSGSGSGTDFTLKISRVEAEDVGVYYCSQSTHVPWTFGGGTKLEIKR
notes: IgG4pro(deltaK)/kappa; also called FFP104_Var1
As for B9, in assay [1], the “Percentage inhibition … at 1 ng/ml” value is -0.9% and the “Percentage inhibition … at 10 ng/ml” value came to 81.8%. In assay [2], the CD40 binding was 34.9 mg/L.

B10: PG102_Var14 (antibody, human IgG4 S228P, kappa, V domains shown)
VH: QVQLQESGPGLVKPSETLSITCTVSGFSLSRYSVYWVRQPPGKGLEWMGMMWGGGSTDYSTSLKSRLTISKDTSKSQVSLKMSSLTAADTAVYYCVRTDGDYWGQGTLVTVSS
VL: DIVMTQSPLSLPVTPGQPASISCRSSQSLASSQGNTYLHWYLQKPGQSPRLLIYKVSNRFSGVPDRFSGSGSGTDFTLKISRVEAEDVGVYYCSQSTHVPWTFGGGTKLEIKR
notes: IgG4pro(deltaK)/kappa; also called FFP104_Var14
With B10, in assay [1], the “Percentage inhibition … at 1 ng/ml” value turned out to be 21.8% and the “Percentage inhibition … at 10 ng/ml” value stood at 85.5%. In addition, the CD40 binding in assay [2] stood at 23 mg/L.

B11: PG102_Var16 (antibody, human IgG4 S228P, kappa, V domains shown)
VH: QVQLVESGGGLVKPGGSLRLSCAVSGFSLSRYSVYWIRQAPGKGLEWMGMMWGGGSTDYSTSVKGRFTISKDNAKTSVYLQMSSLRAEDTAVYYCVRTDGDYWGQGTLVTVSS
VL: DIVMTQSPLSLPVTPGQPASISCRSSQSLASSQGNTYLHWYLQKPGQSPRLLIYKVSNRFSGVPDRFSGSGSGTDFTLKISRVEAEDVGVYYCSQSTHVPWTFGGGTKLEIKR
notes: IgG4pro(deltaK)/kappa; also called FFP104_Var16
B11: the CD40 binding in assay [2] is 20.7 mg/L.

B12: PG102_Var2 (antibody, human IgG4 S228P, kappa, V domains shown)
VH: QVQLQESGPGLVKPSETLSITCTVSGFSLSRYSVYWVRQPPGKGLEWMGMMWGGGSTDYSTSLKSRLTISKDTSKSQVSLKMSSLTAADTAVYYCVRTDGDYWGQGTLVTVSS
VL: ELQLTQSPLSLPVTLGQPASISCRSSQSLASSSGNTYLHWYLQRPGQSPRLLIYKVSNRFSGVPDRFSGSGSGTDFTLKISRVEAEDVGVYYCSQSTHVPWTFGGGTKLEIKR
notes: IgG4pro(deltaK)/kappa; also called FFP104_Var2
Take B12: in assay [1], the “Percentage inhibition … at 1 ng/ml” value turned out to be 20.2% and the “Percentage inhibition … at 10 ng/ml” value turned out to be 87.2%. In assay [2], the CD40 binding was 30.1 mg/L.

B13: PG102_Var11 (antibody, human IgG4 S228P, kappa, V domains shown)
VH: QVQLQESGPGLVKPSQTLSLTCTVSGFSLSRYSVYWVRQPPGKGLEWIGMMWGGGSTDYNPSLKSRLTISKDTSKSQVSLKLSSLTAADTAVYYCVRTDGDYWGQGTLVTVSS
VL: ELQLTQSPLSLPVTLGQPASISCRSSQSLADSQGNTYLHWYLQRPGQSPRLLIYKVSNRFSGVPDRFSGSGSGTDFTLKISRVEAEDVGVYYCSQSTHVPWTFGGGTKLEIKR
notes: IgG4pro(deltaK)/kappa; also called FFP104_Var11
For B13, in assay [2], the CD40 binding worked out at 12.6 mg/L.

B14: PG102_Var15 (antibody, human IgG4 S228P, kappa, V domains shown)
VH: QVQLQESGPGLVKPSQTLSLTCTVSGFSLSRYSVYWVRQPPGKGLEWIGMMWGGGSTDYNPSLKSRLTISKDTSKSQVSLKLSSLTAADTAVYYCVRTDGDYWGQGTLVTVSS
VL: DIVMTQSPLSLPVTPGQPASISCRSSQSLASSQGNTYLHWYLQKPGQSPRLLIYKVSNRFSGVPDRFSGSGSGTDFTLKISRVEAEDVGVYYCSQSTHVPWTFGGGTKLEIKR
notes: IgG4pro(deltaK)/kappa; also called FFP104_Var15
Take B14: the CD40 binding in assay [2] came to 29.4 mg/L.

B15: PG102_Var6 (antibody, human IgG4 S228P, kappa, V domains shown)
VH: QVQLQESGPGLVKPSETLSITCTVSGFSLSRYSVYWVRQPPGKGLEWMGMMWGGGSTDYSTSLKSRLTISKDTSKSQVSLKMSSLTAADTAVYYCVRTDGDYWGQGTLVTVSS
VL: ELQLTQSPLSLPVTLGQPASISCRSSQSLASSQGNTYLHWYLQRPGQSPRLLIYKVSNRFSGVPDRFSGSGSGTDFTLKISRVEAEDVGVYYCSQSTHVPWTFGGGTKLEIKR
notes: IgG4pro(deltaK)/kappa; also called FFP104_Var6
For B15, in assay [1], the “Percentage inhibition … at 1 ng/ml” value worked out at 16.6% and the “Percentage inhibition … at 10 ng/ml” value turned out to be 86%. Moreover, the CD40 binding in assay [2] came to 39.7 mg/L.

B16: PG102_Var3 (antibody, human IgG4 S228P, kappa, V domains shown)
VH: QVQLQESGPGLVKPSQTLSLTCTVSGFSLSRYSVYWVRQPPGKGLEWIGMMWGGGSTDYNPSLKSRLTISKDTSKSQVSLKLSSLTAADTAVYYCVRTDGDYWGQGTLVTVSS
VL: ELQLTQSPLSLPVTLGQPASISCRSSQSLASSSGNTYLHWYLQRPGQSPRLLIYKVSNRFSGVPDRFSGSGSGTDFTLKISRVEAEDVGVYYCSQSTHVPWTFGGGTKLEIKR
notes: IgG4pro(deltaK)/kappa; also called FFP104_Var3
Regarding B16, in assay [1], the “Percentage inhibition … at 1 ng/ml” value turned out to be 16.1% and the “Percentage inhibition … at 10 ng/ml” value amounted to 88.5%. Besides, in assay [2], the CD40 binding is 38.5 mg/L.

B17: PG102_Var12 (antibody, human IgG4 S228P, kappa, V domains shown)
VH: QVQLVESGGGLVKPGGSLRLSCAVSGFSLSRYSVYWIRQAPGKGLEWMGMMWGGGSTDYSTSVKGRFTISKDNAKTSVYLQMSSLRAEDTAVYYCVRTDGDYWGQGTLVTVSS
VL: ELQLTQSPLSLPVTLGQPASISCRSSQSLADSQGNTYLHWYLQRPGQSPRLLIYKVSNRFSGVPDRFSGSGSGTDFTLKISRVEAEDVGVYYCSQSTHVPWTFGGGTKLEIKR
notes: IgG4pro(deltaK)/kappa; also called FFP104_Var12
For the molecule B17, in assay [2], the CD40 binding came to 2.35 mg/L.
